According to publication PMC10164551, “Structural basis of tRNAPro acceptor stem recognition by a bacterial trans-editing domain”:

Target: T1, ProXp-ala K50A (Caulobacter crescentus, UniProt Q9ABV9 1-168, K50A)
T1 sequence: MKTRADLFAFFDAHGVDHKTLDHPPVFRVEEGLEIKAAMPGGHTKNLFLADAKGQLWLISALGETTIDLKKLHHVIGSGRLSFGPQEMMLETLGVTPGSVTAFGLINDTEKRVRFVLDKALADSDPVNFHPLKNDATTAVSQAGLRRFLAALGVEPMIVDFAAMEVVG
Experiment: AUC; 1 mM MgCl2; 9.6 μM protein reaches about 36% bound; EMSA: 81 nM duplex annealed in 50 mM sodium phosphate pH 7.5, 150 mM NaCl, 0-114 μM protein, 1 h room temp, 16% native gel in TBE; NMR: same phosphate buffer, 1
Settings: protein: recombinant; tags: N-terminal His6 removed by thrombin; leaves Gly-Ser-His; hairpin; 7 bp stem, 3' ACCA single-stranded

## CGGCGAGUUCGCUCGCCGACCA (structured_RNA) [microhelixPro]
  binding signal: ~8 fold weaker than WT
